# Test results from patent US20170355766A1 (Xencor, published 2017).
# T1: human FcγRIIb receptor protein (R&D Systems) (human, UniProt P31994 46-217)
# T1 construct: Analyte injected over antibodies captured on a protein A/G chip (Biacore); also called CD32b
# T1 sequence (looked up): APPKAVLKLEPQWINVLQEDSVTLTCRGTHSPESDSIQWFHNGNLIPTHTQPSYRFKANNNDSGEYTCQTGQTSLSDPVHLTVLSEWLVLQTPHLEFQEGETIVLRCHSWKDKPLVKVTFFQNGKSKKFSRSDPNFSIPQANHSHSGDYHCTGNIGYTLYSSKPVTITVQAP
# Molecular target: T1, human FcγRIIb receptor protein (R&D …)
# Test: SPR (Biacore)
# Procedure: Variants were screened for receptor affinity using Biacore™ technology, also referred to as Biacore herein, a surface plasmon resonance (SPR) based technology for studying biomolecular interactions in real time. SPR measurements were performed using a Biacore 3000 instrument (Biacore, Piscataway, N.J.). A protein A/G (Pierce Biotechnology) CM5 biosensor chip (Biacore) was generated using a standard primary amine coupling protocol. All measurements were performed using HBS-EP buffer (10 mM HEPES pH 7.4, 0.15 M NaCl, 3 mM EDTA, 0.005% vol/vol surfactant P20, Biacore). Antibodies at 20 nM or 50 nM in HBS-EP buffer were immobilized on the protein A/G surface and FcγRs were injected. After each cycle, the surface was regenerated by injecting glycine buffer (10 mM, pH 1.5). Data were processed by zeroing time and response before the injection of FcγR and by subtracting appropriate nonspecific signals (response of reference channel and injection of running buffer). Kinetic analyses were performed by global fitting of binding data with a 1:1 Langmuir binding model using BIAevaluation software (Biacore).
Fold FcγRIIb [fold],binding result,Binder
6.09,,"K326E (antibody, human IgG1, kappa, HuAM4G7 IgG1 Fc variant) heavy: not shown light: DIVMTQSPATLSLSPGERATLSCRSSKSLQNVNGNTYLYWFQQKPGQSPQLLIYRMSNLNSGVPDRFSGSGSGTEFTLTISSLEPEDFAVYYCMQHLEYPITFGAGTKLEIKRTVAAPSVFIFPPSDEQLKSGTASVVCLLNNFYPREAKVQWKVDNALQSGNSQESVTEQDSKDSTYSLSSTLTLSKADYEKHKVYACEVTHQGLSSPVTKSFNRGEC"
32.8,,"L234W/S239D/L328Y (antibody, human IgG1, kappa, HuAM4G7 IgG1 Fc variant) heavy: EVQLVESGGGLVKPGGSLKLSCAASGYTFTSYVMHWVRQAPGKGLEWIGYINPYNDGTKYNEKFQGRVTISSDKSISTAYMELSSLRSEDTAMYYCARGTYYYGTRVFDYWGQGTLVTVSSASTKGPSVFPLAPSSKSTSGGTAALGCLVKDYFPEPVTVSWNSGALTSGVHTFPAVLQSSGLYSLSSVVTVPSSSLGTQTYICNVNHKPSNTKVDKKVEPKSCDKTHTCPPCPAPEWLGGPDVFLFPPKPKDTLMISRTPEVTCVVVDVSHEDPEVKFNWYVDGVEVHNAKTKPREEQYNSTYRVVSVLTVLHQDWLNGKEYKCKVSNKAYPAPIEKTISKAKGQPREPQVYTLPPSREEMTKNQVSLTCLVKGFYPSDIAVEWESNGQPENNYKTTPPVLDSDGSFFLYSKLTVDKSRWQQGNVFSCSVMHEALHNHYTQKSLSLSPGK light: DIVMTQSPATLSLSPGERATLSCRSSKSLQNVNGNTYLYWFQQKPGQSPQLLIYRMSNLNSGVPDRFSGSGSGTEFTLTISSLEPEDFAVYYCMQHLEYPITFGAGTKLEIKRTVAAPSVFIFPPSDEQLKSGTASVVCLLNNFYPREAKVQWKVDNALQSGNSQESVTEQDSKDSTYSLSSTLTLSKADYEKHKVYACEVTHQGLSSPVTKSFNRGEC"
3.97,,"L235F/H268D/L328Y (antibody, human IgG1, kappa, HuAM4G7 IgG1 Fc variant) heavy: EVQLVESGGGLVKPGGSLKLSCAASGYTFTSYVMHWVRQAPGKGLEWIGYINPYNDGTKYNEKFQGRVTISSDKSISTAYMELSSLRSEDTAMYYCARGTYYYGTRVFDYWGQGTLVTVSSASTKGPSVFPLAPSSKSTSGGTAALGCLVKDYFPEPVTVSWNSGALTSGVHTFPAVLQSSGLYSLSSVVTVPSSSLGTQTYICNVNHKPSNTKVDKKVEPKSCDKTHTCPPCPAPELFGGPSVFLFPPKPKDTLMISRTPEVTCVVVDVSDEDPEVKFNWYVDGVEVHNAKTKPREEQYNSTYRVVSVLTVLHQDWLNGKEYKCKVSNKAYPAPIEKTISKAKGQPREPQVYTLPPSREEMTKNQVSLTCLVKGFYPSDIAVEWESNGQPENNYKTTPPVLDSDGSFFLYSKLTVDKSRWQQGNVFSCSVMHEALHNHYTQKSLSLSPGK light: DIVMTQSPATLSLSPGERATLSCRSSKSLQNVNGNTYLYWFQQKPGQSPQLLIYRMSNLNSGVPDRFSGSGSGTEFTLTISSLEPEDFAVYYCMQHLEYPITFGAGTKLEIKRTVAAPSVFIFPPSDEQLKSGTASVVCLLNNFYPREAKVQWKVDNALQSGNSQESVTEQDSKDSTYSLSSTLTLSKADYEKHKVYACEVTHQGLSSPVTKSFNRGEC"
4.11,,"L235D/S239D (antibody, human IgG1, kappa, HuAM4G7 IgG1 Fc variant) heavy: not shown light: DIVMTQSPATLSLSPGERATLSCRSSKSLQNVNGNTYLYWFQQKPGQSPQLLIYRMSNLNSGVPDRFSGSGSGTEFTLTISSLEPEDFAVYYCMQHLEYPITFGAGTKLEIKRTVAAPSVFIFPPSDEQLKSGTASVVCLLNNFYPREAKVQWKVDNALQSGNSQESVTEQDSKDSTYSLSSTLTLSKADYEKHKVYACEVTHQGLSSPVTKSFNRGEC"
,no binding,"L234F/G236N (antibody, human IgG1, kappa, HuAM4G7 IgG1 Fc variant) heavy: not shown light: DIVMTQSPATLSLSPGERATLSCRSSKSLQNVNGNTYLYWFQQKPGQSPQLLIYRMSNLNSGVPDRFSGSGSGTEFTLTISSLEPEDFAVYYCMQHLEYPITFGAGTKLEIKRTVAAPSVFIFPPSDEQLKSGTASVVCLLNNFYPREAKVQWKVDNALQSGNSQESVTEQDSKDSTYSLSSTLTLSKADYEKHKVYACEVTHQGLSSPVTKSFNRGEC"
5.89,,"L234E/H268D (antibody, human IgG1, kappa, HuAM4G7 IgG1 Fc variant) heavy: not shown light: DIVMTQSPATLSLSPGERATLSCRSSKSLQNVNGNTYLYWFQQKPGQSPQLLIYRMSNLNSGVPDRFSGSGSGTEFTLTISSLEPEDFAVYYCMQHLEYPITFGAGTKLEIKRTVAAPSVFIFPPSDEQLKSGTASVVCLLNNFYPREAKVQWKVDNALQSGNSQESVTEQDSKDSTYSLSSTLTLSKADYEKHKVYACEVTHQGLSSPVTKSFNRGEC"
3.31,,"L235F/L328Y/I332E (antibody, human IgG1, kappa, HuAM4G7 IgG1 Fc variant) heavy: EVQLVESGGGLVKPGGSLKLSCAASGYTFTSYVMHWVRQAPGKGLEWIGYINPYNDGTKYNEKFQGRVTISSDKSISTAYMELSSLRSEDTAMYYCARGTYYYGTRVFDYWGQGTLVTVSSASTKGPSVFPLAPSSKSTSGGTAALGCLVKDYFPEPVTVSWNSGALTSGVHTFPAVLQSSGLYSLSSVVTVPSSSLGTQTYICNVNHKPSNTKVDKKVEPKSCDKTHTCPPCPAPELFGGPSVFLFPPKPKDTLMISRTPEVTCVVVDVSHEDPEVKFNWYVDGVEVHNAKTKPREEQYNSTYRVVSVLTVLHQDWLNGKEYKCKVSNKAYPAPEEKTISKAKGQPREPQVYTLPPSREEMTKNQVSLTCLVKGFYPSDIAVEWESNGQPENNYKTTPPVLDSDGSFFLYSKLTVDKSRWQQGNVFSCSVMHEALHNHYTQKSLSLSPGK light: DIVMTQSPATLSLSPGERATLSCRSSKSLQNVNGNTYLYWFQQKPGQSPQLLIYRMSNLNSGVPDRFSGSGSGTEFTLTISSLEPEDFAVYYCMQHLEYPITFGAGTKLEIKRTVAAPSVFIFPPSDEQLKSGTASVVCLLNNFYPREAKVQWKVDNALQSGNSQESVTEQDSKDSTYSLSSTLTLSKADYEKHKVYACEVTHQGLSSPVTKSFNRGEC"
6.82,,"L235F/S239D/L328Y (antibody, human IgG1, kappa, HuAM4G7 IgG1 Fc variant) heavy: EVQLVESGGGLVKPGGSLKLSCAASGYTFTSYVMHWVRQAPGKGLEWIGYINPYNDGTKYNEKFQGRVTISSDKSISTAYMELSSLRSEDTAMYYCARGTYYYGTRVFDYWGQGTLVTVSSASTKGPSVFPLAPSSKSTSGGTAALGCLVKDYFPEPVTVSWNSGALTSGVHTFPAVLQSSGLYSLSSVVTVPSSSLGTQTYICNVNHKPSNTKVDKKVEPKSCDKTHTCPPCPAPELFGGPDVFLFPPKPKDTLMISRTPEVTCVVVDVSHEDPEVKFNWYVDGVEVHNAKTKPREEQYNSTYRVVSVLTVLHQDWLNGKEYKCKVSNKAYPAPIEKTISKAKGQPREPQVYTLPPSREEMTKNQVSLTCLVKGFYPSDIAVEWESNGQPENNYKTTPPVLDSDGSFFLYSKLTVDKSRWQQGNVFSCSVMHEALHNHYTQKSLSLSPGK light: DIVMTQSPATLSLSPGERATLSCRSSKSLQNVNGNTYLYWFQQKPGQSPQLLIYRMSNLNSGVPDRFSGSGSGTEFTLTISSLEPEDFAVYYCMQHLEYPITFGAGTKLEIKRTVAAPSVFIFPPSDEQLKSGTASVVCLLNNFYPREAKVQWKVDNALQSGNSQESVTEQDSKDSTYSLSSTLTLSKADYEKHKVYACEVTHQGLSSPVTKSFNRGEC"
3.04,,"K326W (antibody, human IgG1, kappa, HuAM4G7 IgG1 Fc variant) heavy: not shown light: DIVMTQSPATLSLSPGERATLSCRSSKSLQNVNGNTYLYWFQQKPGQSPQLLIYRMSNLNSGVPDRFSGSGSGTEFTLTISSLEPEDFAVYYCMQHLEYPITFGAGTKLEIKRTVAAPSVFIFPPSDEQLKSGTASVVCLLNNFYPREAKVQWKVDNALQSGNSQESVTEQDSKDSTYSLSSTLTLSKADYEKHKVYACEVTHQGLSSPVTKSFNRGEC"
5.92,,"L234W/H268D/L328Y (antibody, human IgG1, kappa, HuAM4G7 IgG1 Fc variant) heavy: EVQLVESGGGLVKPGGSLKLSCAASGYTFTSYVMHWVRQAPGKGLEWIGYINPYNDGTKYNEKFQGRVTISSDKSISTAYMELSSLRSEDTAMYYCARGTYYYGTRVFDYWGQGTLVTVSSASTKGPSVFPLAPSSKSTSGGTAALGCLVKDYFPEPVTVSWNSGALTSGVHTFPAVLQSSGLYSLSSVVTVPSSSLGTQTYICNVNHKPSNTKVDKKVEPKSCDKTHTCPPCPAPEWLGGPSVFLFPPKPKDTLMISRTPEVTCVVVDVSDEDPEVKFNWYVDGVEVHNAKTKPREEQYNSTYRVVSVLTVLHQDWLNGKEYKCKVSNKAYPAPIEKTISKAKGQPREPQVYTLPPSREEMTKNQVSLTCLVKGFYPSDIAVEWESNGQPENNYKTTPPVLDSDGSFFLYSKLTVDKSRWQQGNVFSCSVMHEALHNHYTQKSLSLSPGK light: DIVMTQSPATLSLSPGERATLSCRSSKSLQNVNGNTYLYWFQQKPGQSPQLLIYRMSNLNSGVPDRFSGSGSGTEFTLTISSLEPEDFAVYYCMQHLEYPITFGAGTKLEIKRTVAAPSVFIFPPSDEQLKSGTASVVCLLNNFYPREAKVQWKVDNALQSGNSQESVTEQDSKDSTYSLSSTLTLSKADYEKHKVYACEVTHQGLSSPVTKSFNRGEC"
6.32,,"L234W/L328Y/I332E (antibody, human IgG1, kappa, HuAM4G7 IgG1 Fc variant) heavy: EVQLVESGGGLVKPGGSLKLSCAASGYTFTSYVMHWVRQAPGKGLEWIGYINPYNDGTKYNEKFQGRVTISSDKSISTAYMELSSLRSEDTAMYYCARGTYYYGTRVFDYWGQGTLVTVSSASTKGPSVFPLAPSSKSTSGGTAALGCLVKDYFPEPVTVSWNSGALTSGVHTFPAVLQSSGLYSLSSVVTVPSSSLGTQTYICNVNHKPSNTKVDKKVEPKSCDKTHTCPPCPAPEWLGGPSVFLFPPKPKDTLMISRTPEVTCVVVDVSHEDPEVKFNWYVDGVEVHNAKTKPREEQYNSTYRVVSVLTVLHQDWLNGKEYKCKVSNKAYPAPEEKTISKAKGQPREPQVYTLPPSREEMTKNQVSLTCLVKGFYPSDIAVEWESNGQPENNYKTTPPVLDSDGSFFLYSKLTVDKSRWQQGNVFSCSVMHEALHNHYTQKSLSLSPGK light: DIVMTQSPATLSLSPGERATLSCRSSKSLQNVNGNTYLYWFQQKPGQSPQLLIYRMSNLNSGVPDRFSGSGSGTEFTLTISSLEPEDFAVYYCMQHLEYPITFGAGTKLEIKRTVAAPSVFIFPPSDEQLKSGTASVVCLLNNFYPREAKVQWKVDNALQSGNSQESVTEQDSKDSTYSLSSTLTLSKADYEKHKVYACEVTHQGLSSPVTKSFNRGEC"
